Laboratory results published in the DeepSol protein solubility set.

Assay: soluble on expression in E. coli; label from the status in PepcDB or PDB records

Soluble on expression in E. coli, not soluble:
MSLSITFFVTGDNHLGYYEKNLTLKDDCYKLFEQYLKEATQKEGSILLQCGDLFNDLRPNKSCVSKTANLIKKYCIGDADIPYTIKDEAELSYPLNITDPYINVKHPLFTIHGTNDEPSGYKLIAGSEILASCGLVNYISPKSFEEEKMLKPVIIVNEHTKIALYGLSVLYSSDLDEIVEDETFHIKKPNGNDWICILLLYIGKGTISQTTKDIIEKHFNIIILGGQHSCNIPTGDFNGSVIIQPGSPFFLSFDEYDEIKKGFVKIVVEGQKIYIEKKEYKPIHRMIKKEVYIPETLRDCVISKRIEDFIQQEMKKCITEAVIKENEQILLKLIVKDCNQDCYPDTKKISSLLEEDVVNFIDCIKVKKEGHHHHHH
RRNDDAGMIIPSFGISYDDQYDLIDEIERISKLTDVDEIKKSMDAIDGKKMDFDLGGVVAVGIPNKFLSATVYGKLYTESFVQPNVDTSGADPLTDSYVQGVSIGVAEAGVSLAKYTNFMNQHLSFGITPKLQRIYTYSYATSFKNFDTKDLREHETAETMFNLDAGALWFFGPYRLGISAKNLIGRDVKTKSFQYNTDTIQSYEYSMRPVYTVGAGIVADYFTMSVDYDLNEEKRFSSFDDNTQMIRAGFEIDILRQMALRGGYMKNLARSNDEGTITAGIGLSPLNLIELDISARYTNENAMGASINFLATY
MGYKELLLECQKLLNEGDFEGMIKKLEELSKMEPSSKEEAEESLKLLDFLIEEVKKRQEEIFNKMVNYQKFKNYLR
MALPESESARTEQALGRLVGSLCVVTAQQGELSSAMLASWVSQATFSPPGLTVAVAKERAIESLLHKNSCFVLNILQEGNHLGLMKHFLKPFAPGGDRFADVATETAENGAPILTESLAYLECRVQQRLECGDHWVLYAVTDRGALLKDGVTAVHHRKSGDHYLEHHHHHH
MSIWCAVCNDLKPCEEATQLIPCLHTFCTKCLKKSTKKMRVCPVAHCYSSLTAPEPMTSTCEGENCQRKIMGNAEILRTACHHDICQHCYDLASRKEKSCCPALGCAELMIDEEDMICEGPCKKALVFDKTIVIPCCGARMCDVCGPKWTNGRDFCELGKCVNKESAKRRKSADATRQPCMGSLHCEGEVLRNFPSELECDHDVCIKCIGSMLDECEKNGKSPACPVKTCAIPYRCESVLALDAQFPEKKAFFSKFTLQAKFSMQTLKDDIVTNIIHGDLNTMNGQKFSLKIGQCDDDDGGMPMEFVREGTLGDLVRETRRVLKILPTDKIYGYYRIDDNKKSKLDVTKDTIRSSCSSLNINENTTVLVDTTGIVSRPKKQ
MKYRIVRIELKSDDEVTLYLKSASRKPGVMAKADFSDPVKVIEFGLQMGMDLARRIEELMQFDAFLTVPYDYYSMNELKVGDVVEVEVRLAER
MYPIKIIYVYKAMLDKVIDKAGGVLTEAYGDVVKPVLKPIGEVLGFLPRSIKCLLQGWEKWIINGEESIRLTSEAIRKKIEATPAERLTEPEPYVVVPAIQQLGYSHSSEELRELYANLIVSSMDVEKKGLVHPAFVDILKKLTPDEAKIIQYFKGRDFIEYLDLRAYIKEEEGGGFRTIADHKTLLSDEVNFFMPDNELAYLQNLVCLGILKDCEGTFTVIEDNYKLIENKLGLESLRNQYVPEQFSSIRSEKSFYQVTDFGRNFINTVTE
MKALIVDDEPLARNELQYLLNLNDAIDEIEEAENIEETLEKLLYNTFDLIFLDINLMDESGIDLAQKINKMKRSPHIIFATAHEKFAVKAFELNATDYILKPFEKERINQAVNKVDMAKDKSKNKDKTITPKYIDYSDDERAQTHVLPIEVDERIHILNFTDIIALSVNNGITTIDTTKQSYETTETLNHYEKKLPSSLFIKIHRATIVNKEHIQTIEHWFNYTYQLTLTHEFKYQVSRSYMKTFKQQLGLQ
MGSDKIHHHHHHMNAVPKDEMTPLERMAAFAAGKPYDRIPCSSFSGETACHFIGTTVSEYRHSAKLMARVETVTYKMFGHDGAGVGPGFLALAEAMGTELKYPEDNIPFVANPVLKNWDDFDKLEPADPHKDGKLPIYLEALAMIKDAIGDEVPIGSSVGGPFTTAALVRGTENFLKDLRRNPEMAHRLLQLVTNTTLNYIDAVMDMGCSVSIGDPTASGSLLSVKQFREFAKPYLSKLADRVIERTGKGPMLHICGDSTPIWSDMADTGAPTLSLDNVIDLAEAKKVVGERVCIMGNVKPIDTIMKGSHQQIEAEVKECLRKAYDSPKGFILAVGCQVPLGTTADNFMCFMNAARKYGRYPLNPDNFI
MEIYHQYIKLRKQFGRFPKFGDEGSEMLADIRPNEDHGKEYIPRNPVTTVTQCVPEMSEHEANTNAVILVNKAMSHVEGGWPKDVDYTEAEHTIRYRKKVEKDEDYIRTVVQLGSSVEDLIKQNNAVDIYQEYFTNVTMDHTSEAPHVKTVTVFKDPNNIKRSASYVNWHPDGSVPKVVVAYSILQFQQQPAGMPLSSYIWDVNNPNTPEYEMVPTSQICCAKFNLKDNNLVGAGQYNGQLAYFDVRKGNGPVEATPIDISHRDPIYDFAWLQSKTGTECMTVSTDGNVLWWDLRKMNECVENMPLKEKNSETTVGGVCLEYDTNAGPTNFMVGTEQGQIFSCNRKAKNPVDRVKYVLSGHHGPIYGLRRNPFNSKYFLSIGDWTARVWVEDTAVKTPILTTKYHPTYLTGGTWSPSRPGVFFTIKMDGAMDVWDLYYKHNEPTLTVQVSDLALTAFAVQESGGTVAVGTSDGCTSVLQLSTGLSEASPAEKANINAMFERETTREKNLEKAIKEAKVKARKEQGRRDEVKDNVTEEQLKALEDEFFKTTDPAVGGGYGAGEGAAAE
MGSDKIHHHHHHMSSAPIIYALSNNSLLIDAAHLDANNVLTIQKKIWALAAHCKNTAEFTDLVAGMNSLTLYLKSSAGLTKWLEALPLLWDELKSSTFTGKHHLIETLYEGEDLAYVARFHNLSIDEVISIHSKAQYHVLFLGFQPGFAYLHGLDTRLHTPRRAEPRIKVPKGAVAIGAAQTGIYPSDTPGGWHIIGHTNTTLFNSSHSQPCLMQPGDTLEFVALKNQGAGA
MGSDKIHHHHHHMSLLKITQGLFRLSDTRMLRLDELTLEQNQCWAFVGANGSGKSALARALSGELPLLSGERTTGFQHPVRLSFEQLQKLVSDEWQRNNTDLLSEGEDDTGRTTAEVIQDSLNDPTRCQQLACQFGIAHLLERRFKYLSTGETRKAMLCQALMPQPDLLILDEPFDGLDVTSRQQLADELRKLVDTGYTLVLILNRFDDIPDFINHIGVLADCTLTRIGEREAILSEALVAQLAFSEKLSGSSLPEPEDPQRHVTLPADEAHILLRNGVVQYNDRPILHELTWEVFPGQHWQIIGPNGAGKSTLLSLITGDHPQGYSNDLTLFGRKRGSGETIWDIKRHIGYVSSSLHLDYRVSTSVRNVILSGFFDSIGIYQAVSDRQRHLTEQWLILLGLSGAIADTPFQSLSWGQQRLTLIARALVKHPALLILDEPLQGLDPLNRQLVRRWLDILIGEGETQLLFVSHHAEDAPECITHRLTFVPHNDIYRYQIDELCK
MGSDKIHHHHHHMDQEQLDALANAALEELARRNYGDFFYLSHGKQWDLLRHQKYITDRLQKIIDGEQKYYIIEIPPQHGKSTVITETFPAYYLMRHPDSLVMVVSYSKELFQKFGRKNREKFRLFSDQLFGLQISSETSSVSEWGVEGHLGSLYSTSILGGATGRGARLLIIDDPIKNRAEAESKTIRDKIYNEWQDTFYSRLTADASVIVIMTRWHEDDLAGRLLKEQTLPWEEIKIPAIAEDDDLLGRKPGEALAPEIGKDEEWAAKTKAVTGSRGWAALYQQRPTPAGGNIFKRSWIKFYVPTLSKKIELSLGDDVVILPRLFDRQAQSWDCTFKDTETSDYVSGQVWGKKRADFYLLDRHHERMGIVETMKAIDAMAAKWPKARGIYIEDKANGTAVIEMLKNELSGIIAVNPEGGKEVRANAVAPIWEAGNVYLPHPLVCPWVDDFINELVAFPNAEHDDDVDSMTQILNKMIGKVSLRERYLDN

Soluble on expression in E. coli, soluble:
GMSGDSEVGTEAGLTLGGDGILRLTWPRGAAITAADAERAMLRVNQLCGDDRHPMLVDMATTADVSRGARAVFGRPCQASRIALLGSSPVDRVLANFFLGINAVPCPTKFFTSERDALTWLALT
MDSKLIGKICKSIRYRDYETAIFLAACLLPCKPEYRMLMSIVLYLNGEYTRALFHLHKLNTCTSKYYESLCYKKKKDYKKAIKSLESILEGKVERDPDVDARIQEMFVDPGDEEFFESLLGDLCTLSGYREEGIGHYVRSFGKSFLFSPVENLLLENKVPQKRDKENVRQTGRRGIEEEYVSDSIEFHESLSPSLVKKYMEHVPGIGSYFISNAARRYFNLGMNDKSKACFELVRRKDPMFL
MSEQSICQARASVMVYDDTSKKWVPIKPGQQGFSRINIYHNTASSTFRVVGVKLQDQQVVINYSIVKGLKYNQATPTFHQWRDARQVYGLNFASKEEATTFSNAMLFALNIMNSQEGGPSTQRQVQNGPS
MIERYSREEMSNIWTDQNRYEAWLEVEILACEAWSELGHIPKADVQKIRQNAKVNVERAQEIEQETRHDVVAFTRQVSETLGEERKWVHYGLTSTDVVDTALSFVIKQANDIIEKDLERFIDVLAEKAKNYKYTLMMGRTHGVHAEPTTFGVKMALWYTEMQRNLQRFKQVREEIEVGKMSGAVGTFANIPPEIESYVCKHLGIGTAPVSTQTLQRDRHAYYIATLALIATSLEKFAVEIRNLQKTETREVEEAFAKGQKGSSAMPHKRNPIGSENITGISRVIRGYITTAYENVPLWHERDISHSSAERIMLPDVTIALDYALNRFTNIVDRLTVFEDNMRNNIDKTFGLIFSQRVLLALINKGMVREEAYDKVQPKAMISWETKTPFRELIEQDESITSVLTKEELDECFDPKHHLNQVDTIFERAGLA
MLLEAPVYKEIFGAVTIHEVQKVIKMDTETEEVPIYTISNIPREKIYDLLGKMAVIVPMKNEKLHLVDGVLKAIPHKCPIIIVSNSKREGPNRYKLEVDLIRHFYNLTHSKIIMIHQKDPGLAKAFKEVGYTDILDENGMIRSGKGEGMLVGLLLAKAIGAEYVGFVDADNYIPGAVNEYVKDYAAGFLMSESEYTMVRLHWRHKPKVTKGTLYFKKWGRVSEITNHYLNLLVSEHTAFETTIMVTGNAGEHAMTMKLAEILPFSTGYSIEPYEIVYILERFGKWENVEEFKDVFDQGIEIFQIETLNPHFHEDKGKEHVKEMLLLSLATIYHSKLATDNLRKRILKDLRDHGILGENEEPPKPLVMRPIKEIPIKEWMDIVEGNSETLLRFEL
MGHHHHHHSHMQGLLRFEDQDSARGDQNIAMFYPTSTQMVYRRGLQAIPLSGDLWIHYINFLKETLDPGDPETNNTIRGTFEHAVLAAGTDFRSDRLWEMYIDWENEQGNLREVTAIYDRILGIPTQLCSHHFQRFKEHVQNNLPRDLLTGEQFIQLRRELASVNGHSGDDGPPGDDLPSGIEDITDPAKLITEIENMRHRIIEIHQEMFNYNEHEVSKRWTFEEGIKRPYFHVKPLEKAQLKKLERILRI
MAATATEKLPQLKSAVDGLTEMSENEKSGFINLVSRYLSGEAQHIEWSKIQTPTDEIVVPYDKMANVSEDASETKYLLDKLVVLKLNGGLGTTMGCTGPKSVIEVRDGLTFLDLIVIQIENLNNKYNCKVPLVLMNSFNTHDDTQKIVEKYTKSNVDIHTFNQSKYPRVVADEFVPWPSKGKTDKDGWYPPGHGDVFPSLMNSGKLDAFLSQGKEYVFIANSDNLGAIVDLKILKHLIQNKNEYCMEVTPKTLADVKGGTLISYEGKVQLLEIAQVPDEHVNEFKSIEKFKIFNTNNLWVNLKAIKKLVEADALKMEIIPNPKEVDGVKVLQLETAAGAAIRFFDNAIGVNVPRSRFLPVKATSDLLLVQSDLYTLVDGFVTRNKARTNPTNPAIELGPEFKKVASFLSRFKSIPSIVELDSLKVSGDVWFGSGVVLKGKVTVKANAGTKLEIPDNAVLENKDINGPEDL
